Values joined by “and” are separate entries in the source; they are usually repeats but may differ in a detail not shown here. Equal entries are not always repeated.
Assays:
PD-L1 (human) = PD-L1 (human) (UniProt Q9NZQ7); test: flow cytometry on HEK293 cells transfected with PD-L1
[1] = target: human PD-L1, full length, on transfected HEK293 cells (human) (UniProt Q9NZQ7); test: flow cytometry, Fc fusion at 22.2 nM on HEK293 cells transfected with PD-L1
[2] = target: human CD28, full length, on transfected HEK293 cells (human) (UniProt P10747); test: flow cytometry, Fc fusion at 66.6 nM on HEK293 cells transfected with CD28
CD112R (human) = CD112R (human) (UniProt Q6DKI7); test: flow cytometry, cells expressing target, 25 nM
CD226 (human) = target: T1, CD226 (human) (UniProt Q15762); test: flow cytometry, cells expressing target, 25 nM
T1 sequence: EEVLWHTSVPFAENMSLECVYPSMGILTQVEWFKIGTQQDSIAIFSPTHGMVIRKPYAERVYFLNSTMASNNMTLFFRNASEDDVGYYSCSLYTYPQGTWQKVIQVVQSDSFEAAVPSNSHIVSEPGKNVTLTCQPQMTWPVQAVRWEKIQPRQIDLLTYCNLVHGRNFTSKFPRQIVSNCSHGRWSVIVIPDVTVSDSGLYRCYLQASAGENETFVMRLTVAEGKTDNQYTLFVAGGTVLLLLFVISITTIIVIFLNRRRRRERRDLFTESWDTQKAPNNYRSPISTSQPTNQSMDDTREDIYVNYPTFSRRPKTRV

CD96 = target: T2, CD96 (UniProt P40200); test: flow cytometry, cells expressing target, 25 nM
T2 sequence (looked up): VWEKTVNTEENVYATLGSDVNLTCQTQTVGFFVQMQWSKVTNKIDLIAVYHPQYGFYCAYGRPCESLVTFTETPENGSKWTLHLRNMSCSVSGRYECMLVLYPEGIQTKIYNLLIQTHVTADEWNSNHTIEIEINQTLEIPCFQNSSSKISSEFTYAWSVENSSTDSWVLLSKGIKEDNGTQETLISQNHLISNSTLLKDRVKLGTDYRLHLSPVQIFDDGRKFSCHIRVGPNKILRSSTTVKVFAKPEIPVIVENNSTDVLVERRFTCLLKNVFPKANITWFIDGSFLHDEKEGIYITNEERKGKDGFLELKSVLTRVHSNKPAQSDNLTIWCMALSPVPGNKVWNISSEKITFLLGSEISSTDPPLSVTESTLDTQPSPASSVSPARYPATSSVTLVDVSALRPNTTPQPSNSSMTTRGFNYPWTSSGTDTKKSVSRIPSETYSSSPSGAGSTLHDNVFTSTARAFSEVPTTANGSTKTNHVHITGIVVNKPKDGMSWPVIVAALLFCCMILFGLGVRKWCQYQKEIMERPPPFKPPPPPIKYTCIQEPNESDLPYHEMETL

[3] = target: T3, human CD226, full length, expressed on transfected cells (human) (UniProt Q15762); test: flow cytometry on transfected cells
T3 sequence: T1 sequence

[4] = target: T4, human TIGIT, full length, expressed on transfected cells (human) (UniProt Q495A1); test: flow cytometry on transfected cells
T4 sequence: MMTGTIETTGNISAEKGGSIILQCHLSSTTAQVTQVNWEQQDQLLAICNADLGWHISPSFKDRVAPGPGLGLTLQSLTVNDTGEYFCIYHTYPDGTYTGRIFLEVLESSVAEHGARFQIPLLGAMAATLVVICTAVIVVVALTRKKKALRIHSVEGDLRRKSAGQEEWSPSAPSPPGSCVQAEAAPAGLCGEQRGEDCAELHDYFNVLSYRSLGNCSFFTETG

[5] = target: CD96, expressed on transfected cells (UniProt P40200); test: flow cytometry on transfected cells
[6] = target: CD112R, expressed on transfected cells (human) (UniProt Q6DKI7); test: flow cytometry on transfected cells
Chain of CD112R, expressed on transfected cells (human) (Q6DKI7 whole entry): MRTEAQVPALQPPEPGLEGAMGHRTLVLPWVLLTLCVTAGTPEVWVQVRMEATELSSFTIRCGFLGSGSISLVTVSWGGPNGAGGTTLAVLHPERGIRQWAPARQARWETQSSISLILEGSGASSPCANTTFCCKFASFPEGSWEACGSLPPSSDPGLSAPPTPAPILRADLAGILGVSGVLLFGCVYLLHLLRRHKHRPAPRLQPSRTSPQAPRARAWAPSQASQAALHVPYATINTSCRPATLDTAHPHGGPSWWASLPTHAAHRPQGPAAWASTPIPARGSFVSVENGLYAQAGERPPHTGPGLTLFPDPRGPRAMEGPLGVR

Chain of human PD-L1, full length, on transfected HEK293 cells (human) (Q9NZQ7 19-290 limits assumed): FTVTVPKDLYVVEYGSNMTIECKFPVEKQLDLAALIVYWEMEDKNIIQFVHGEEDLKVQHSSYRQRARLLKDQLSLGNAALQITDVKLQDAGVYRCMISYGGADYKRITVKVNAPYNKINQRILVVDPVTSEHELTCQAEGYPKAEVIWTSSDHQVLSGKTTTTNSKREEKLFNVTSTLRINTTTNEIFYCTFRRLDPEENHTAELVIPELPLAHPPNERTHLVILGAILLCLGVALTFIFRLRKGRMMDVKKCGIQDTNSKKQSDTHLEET
Chain of CD112R (human) (Q6DKI7 whole entry): as the sequence (Q6DKI7 whole entry) above
Chain of PD-L1 (human) (Q9NZQ7 19-290 limits assumed): as the sequence (Q9NZQ7 19-290 limits assumed) above

Row | Substance | MFI at 22.2 nM [1] [MFI] | MFI at 66.6 nM [2] [MFI] | MFI at 100 nM [3] | MFI at 100 nM [4] | MFI at 100 nM [5] | MFI at 100 nM [6] | also measured
1 | CD80 IgV-Fc I30V/T57I/L70P/A71D/A91T (from UniProt P33681 35-141) (Fc fusion) |  |  |  |  |  |  | MFI at 22.2 nM (PD-L1 (human)): 5890 MFI
2 | CD80 IgV-Fc Q27H/M43I/A71D/R73S (from UniProt P33681 35-141) (Fc fusion) |  |  |  |  |  |  | MFI at 22.2 nM (PD-L1 (human)): 8240 MFI
3 | CD80 variant IgV-Fc A12T/E24D/E35D/D46V/I61V/L72P/E95V (from UniProt P33681 35-141) (Fc fusion) | 1220 | 7410 |  |  |  |  | 
4 | CD80 variant IgV-Fc A71D/L72V/E95K (from UniProt P33681 35-141) (Fc fusion) | 8420 | 6310 |  |  |  |  | 
5 | CD80 variant IgV-Fc D46E/A71D (from UniProt P33681 35-141) (Fc fusion) | 22800 | 16800 |  |  |  |  | 
6 | CD80 variant IgV-Fc E35D (from UniProt P33681 35-141) (Fc fusion) | 25500 | 3450 |  |  |  |  | 
7 | CD80 variant IgV-Fc E35D/A71D (IgV SEQ ID NO:622) (from UniProt P33681 35-141) (Fc fusion) | 13800 | 15000 |  |  |  |  | 
8 | CD80 variant IgV-Fc E35D/I67L/A71D (from UniProt P33681 35-141) (Fc fusion) | 9350 | 11200 |  |  |  |  | 
9 | CD80 variant IgV-Fc E35D/M43I/A71D (from UniProt P33681 35-141) (Fc fusion) | 27300 | 6370 |  |  |  |  | 
10 | CD80 variant IgV-Fc E35G/K54E/A71D/L72P (from UniProt P33681 35-141) (Fc fusion) | 1580 | 3700 |  |  |  |  | 
11 | CD80 variant IgV-Fc H18Y/A71D/L72P/E88V (from UniProt P33681 35-141) (Fc fusion) | 1080 | 8860 |  |  |  |  | 
12 | CD80 variant IgV-Fc T13R/M42V/M47I/A71D (from UniProt P33681 35-141) (Fc fusion) | 1870 | 16700 |  |  |  |  | 
13 | CD80 variant IgV-Fc V20I/M47V/A71D (from UniProt P33681 35-141) (Fc fusion) | 9710 | 15100 |  |  |  |  | 
14 | CD80 variant IgV-Fc V22L/E35G/A71D/L72P (from UniProt P33681 35-141) (Fc fusion) | 1400 | 8150 |  |  |  |  | 
15 | CD80 variant IgV-Fc Y31H/E35D/T41S/V68L/K93R/R94W (from UniProt P33681 35-141) (Fc fusion) | 18900 | 2450 |  |  |  |  | 
16 | CD155 variant IgV-Fc P18S, L21M, Y30F, N35D, R84W, F91S, T107M, D116G (from UniProt P15151 24-139) (Fc fusion) |  |  |  |  |  |  | MFI at 25 nM (CD112R (human)): 946 MFI; MFI at 25 nM (CD226 (human)): 743 MFI; MFI at 25 nM (CD96): 1030 MFI
17 | CD155 variant IgV-Fc P18S, P34S, E51V, L79P, F91S, G111R (from UniProt P15151 24-139) (Fc fusion) |  |  |  |  |  |  | MFI at 25 nM (CD112R (human)): 853 MFI; MFI at 25 nM (CD226 (human)): 769 MFI; MFI at 25 nM (CD96): 892 MFI
18 | CD155 variant IgV-Fc P18S, S42T, E51G, L79P, F91S, G92W, T107M (from UniProt P15151 24-139) (Fc fusion) |  |  |  |  |  |  | MFI at 25 nM (CD112R (human)): 857 MFI and 935 MFI; MFI at 25 nM (CD226 (human)): 707 MFI and 851 MFI; MFI at 25 nM (CD96): 1050 MFI and 924 MFI
19 | CD155 variant IgV-Fc P18S, W46R, E68D, L79P, F91S, T107M, R113G (from UniProt P15151 24-139) (Fc fusion) |  |  |  |  |  |  | MFI at 25 nM (CD112R (human)): 798 MFI; MFI at 25 nM (CD226 (human)): 717 MFI; MFI at 25 nM (CD96): 737 MFI

Row | Substance | MFI at 22.2 nM [1] [MFI] | MFI at 66.6 nM [2] [MFI] | MFI at 100 nM [3] | MFI at 100 nM [4] | MFI at 100 nM [5] | MFI at 100 nM [6] | also measured
20 | CD155 variant IgV-Fc T15I, P18S, V33M, N35F, T39S, M55L, R78S, L79P, F91S, T107M (from UniProt P15151 24-139) (Fc fusion) |  |  |  |  |  |  | MFI at 25 nM (CD112R (human)): 789 MFI; MFI at 25 nM (CD226 (human)): 1020 MFI; MFI at 25 nM (CD96): 2710 MFI
21 | CD155 variant IgV-Fc V9I, P18S, S24P, H49Q, F58Y, Q60R, Q62K, L79P, F91S, T107M (from UniProt P15151 24-139) (Fc fusion) |  |  |  |  |  |  | MFI at 25 nM (CD112R (human)): 1030 MFI; MFI at 25 nM (CD226 (human)): 1090 MFI; MFI at 25 nM (CD96): 43900 MFI
22 | CD155 variant IgV-Fc V9L, P18Y, V25A, V38G, M55V, A77T, L79P, M90I, F91S, L104M (from UniProt P15151 24-139) (Fc fusion) |  |  |  |  |  |  | MFI at 25 nM (CD112R (human)): 919 MFI; MFI at 25 nM (CD226 (human)): 26000 MFI; MFI at 25 nM (CD96): 18000 MFI
23 | CD155 variant IgV-Fc V11A, P18T, N35S, L79P, S87T, F91S (from UniProt P15151 24-139) (Fc fusion) |  |  |  |  |  |  | MFI at 25 nM (CD112R (human)): 1270 MFI; MFI at 25 nM (CD226 (human)): 274000 MFI; MFI at 25 nM (CD96): 69900 MFI
24 | CD155 variant L104E IgV-Fc (from UniProt P15151 24-139) (Fc fusion) |  |  | 2260 | 3140 | 1560 | 1800 | 
25 | CD155 variant L104Q IgV-Fc (from UniProt P15151 24-139) (Fc fusion) |  |  | 3790 | 10300 | 1540 | 2120 | 
26 | CD155 variant Q62F IgV-Fc (from UniProt P15151 24-139) (Fc fusion) |  |  | 2570 | 2210 | 2760 | 2710 | 
27 | CD155 variant Q62Y IgV-Fc (from UniProt P15151 24-139) (Fc fusion) |  |  | 2620 | 2530 | 1830 | 1920 | 
28 | CD155 variant S42A, S52L, L104E, G111R IgV-Fc (from UniProt P15151 24-139) (Fc fusion) |  |  | 1890 | 2260 |  |  | 
29 | CD155 variant S42G IgV-Fc (from UniProt P15151 24-139) (Fc fusion) |  |  | 2450 | 4840 | 1700 | 1820 | 
30 | CD155 variant S42N, L104Q, G111R IgV-Fc (from UniProt P15151 24-139) (Fc fusion) |  |  | 2310 | 2430 | 1960 | 1850 | 
31 | CD155 variant S42N, S52Q, Q62F IgV-Fc (from UniProt P15151 24-139) (Fc fusion) |  |  | 2150 | 2400 | 1740 | 1860 | 
32 | CD155 variant S42W IgV-Fc (from UniProt P15151 24-139) (Fc fusion) |  |  | 2130 | 2430 | 2560 | 2330 | 
33 | CD155 variant S52E IgV-Fc (from UniProt P15151 24-139) (Fc fusion) |  |  | 2600 | 2660 | 1800 | 1900 | 
34 | CD155 variant S52L IgV-Fc (from UniProt P15151 24-139) (Fc fusion) |  |  | 2680 | 2220 | 2040 | 2040 | 
35 | CD155 variant S52L, L104E IgV-Fc (from UniProt P15151 24-139) (Fc fusion) |  |  | 2210 | 4320 | 1830 |  | 
36 | CD155 variant S52M, L104Q IgV-Fc (from UniProt P15151 24-139) (Fc fusion) |  |  | 2250 | 2670 | 1630 | 1710 | 
37 | CD155 variant S52Q IgV-Fc (from UniProt P15151 24-139) (Fc fusion) |  |  | 2020 | 2290 | 1820 | 1790 | 
38 | CD155 variant S52R IgV-Fc (from UniProt P15151 24-139) (Fc fusion) |  |  |  | 4400 | 4850 | 2740 | 

— US20200040059A1
